In this assay the target is T1, GST (UniProt P08515 1-218 = GST).
T1 construct: Control for the GST fusion baits; also called glutathione S-transferase (control)
The experiment in a line: GST pull down of recombinant CypD, CypD immunoblot.

The results in this text go back to patent US20090099080A1 (UNIVERSITY OF MASSACHUSETTS, published 2009).

T1 sequence (P08515 whole entry, the tested form may be a part): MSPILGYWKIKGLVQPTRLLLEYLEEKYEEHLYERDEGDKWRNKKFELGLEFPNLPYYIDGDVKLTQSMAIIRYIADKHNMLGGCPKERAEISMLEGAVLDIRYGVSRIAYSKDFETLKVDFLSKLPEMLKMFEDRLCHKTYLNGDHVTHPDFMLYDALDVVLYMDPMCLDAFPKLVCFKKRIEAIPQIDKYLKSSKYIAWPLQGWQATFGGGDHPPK

B1: recombinant CypD (purified, in solution) (enzyme)
chain: not shown
Turning to B1, the binding result was “no binding”.
